Experiments:
[1] = target: human P-cadherin expressed on the cell surface (human, UniProt P22223 108-829); test: cell-based or functional assay
[2] = target: T1, cynomolgus monkey P-cadherin ECD (cynomolgus monkey); test: SPR
T1 construct: extracellular domain; also called cyno P-cadherin ECD; Cyno P-cadherin

[3] = target: T2, human P-cadherin, cell surface expressed (human, UniProt P22223 108-829); test: cell-based or functional assay
[4] = target: T2, human P-cadherin, cell surface expressed; test: cell-based or functional assay; remark: listed apart in the source

Chain of human P-cadherin expressed on the cell surface (P22223 108-829): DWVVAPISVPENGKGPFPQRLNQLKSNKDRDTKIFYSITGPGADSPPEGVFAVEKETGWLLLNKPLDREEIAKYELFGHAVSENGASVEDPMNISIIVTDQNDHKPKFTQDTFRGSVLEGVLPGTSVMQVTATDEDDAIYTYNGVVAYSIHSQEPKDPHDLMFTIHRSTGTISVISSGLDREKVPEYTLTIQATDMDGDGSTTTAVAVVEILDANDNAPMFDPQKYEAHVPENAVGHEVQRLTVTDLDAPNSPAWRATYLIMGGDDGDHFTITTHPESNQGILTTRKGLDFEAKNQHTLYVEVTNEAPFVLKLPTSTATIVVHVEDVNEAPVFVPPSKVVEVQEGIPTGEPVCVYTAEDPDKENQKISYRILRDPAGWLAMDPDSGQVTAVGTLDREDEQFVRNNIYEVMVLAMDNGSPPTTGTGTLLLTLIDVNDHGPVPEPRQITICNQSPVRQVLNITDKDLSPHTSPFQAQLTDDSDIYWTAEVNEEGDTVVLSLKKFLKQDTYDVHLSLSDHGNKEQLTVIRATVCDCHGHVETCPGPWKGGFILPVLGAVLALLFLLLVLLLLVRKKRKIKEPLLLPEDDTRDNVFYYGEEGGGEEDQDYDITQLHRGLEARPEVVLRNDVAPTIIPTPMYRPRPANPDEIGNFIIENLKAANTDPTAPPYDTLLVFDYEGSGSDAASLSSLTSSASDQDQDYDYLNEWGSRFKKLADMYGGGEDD
T2 sequence (P22223 108-829): as above

Binder	T cell Cytotoxicity [1] [nM]	Kd [2] [nM]	T cell directed cytotoxicity EC50, CHO-CDh3 (24 h), LDH release, human PBMC E:T 30:1 [3] [nM]	T cell directed cytotoxicity EC50, H1650 (24 h), LDH release, human PBMC E:T 30:1 [3] [nM]	T cell directed cytotoxicity EC50, H1650 (40 h), LDH release, human PBMC E:T 30:1 [3] [nM]	T cell directed cytotoxicity EC50, H1650 LDH 24 hr 30:1 D41183 [4] [nM]	T cell directed cytotoxicity EC50, HCT116 Luc 48 hr 10:1 D43905 [4] [nM]
LP-DART #7 (bispecific antibody, also called P-cadherin LP-DART construct #7 (P-CAD 35, CD3-2)) chain 1: QAVVTQEPSLTVSPGGTVTLTCRSSTGAVTTSNYANWVQQKPGQAPRGLIGGTNKRAPWTPARFSGSLLGGKAALTITGAQAEDEADYYCALWYSNLWVFGGGTKLTVLGGGGSGGGGEVQLVQSGAEVKKPGASVKVSCKASGYTFTSYGISWVRQAPGQGLEWMGWISAYNGNTNYAQKLQGRVTMTTDTSTSTAYMELRSLRSDDTAVYYCATIDTASAFDIWGQGTMVTVSSGEPKSSDKTHTCPPCPAPEAAGAPSVFLFPPKPKDTLMISRTPEVTCVVVDVSHEDPEVKFNWYVDGVEVHNAKTKPREEQYNSTYRVVSVLTVLHQDWLNGKEYKCKVSNKALPAPIEKTISKAKGQPREPQVYTLPPCREEMTKNQVSLSCAVKGFYPSDIAVEWESNGQPENNYKTTPPVLDSDGSFFLVSKLTVDKSRWQQGNVFSCSVMHEALHNHYTQKSLSLSPG chain 2: QSVLTQPPSVSAAPGQKVTISCSGSSSNIGNNYVSWYQQLPGTAPKLLIYDNNKRPSGIPDRFSGSKSGTSATLGITGLQTGDEADYYCGTWDSSLSAVVFGGGTKLTVLGGGSGGGGEVQLVESGGGLVQPGGSLRLSCAASGFTFNTYAMNWVRQAPGKGLEWVARIRSKYNNYATYYADSVKDRFTISRDDSKNSLYLQMNSLKTEDTAVYYCVRHGNFGNSYVSWFAYWGQGTLVTVSSGEPKSSDKTHTCPPCPAPEAAGAPSVFLFPPKPKDTLMISRTPEVTCVVVDVSHEDPEVKFNWYVDGVEVHNAKTKPREEQYNSTYRVVSVLTVLHQDWLNGKEYKCKVSNKALPAPIEKTISKAKGQPREPQVCTLPPSREEMTKNQVSLWCLVKGFYPSDIAVEWESNGQPENNYKTTPPVLDSDGSFFLYSKLTVDKSRWQQGNVFSCSVMHEALHNHYTQKSLSLSPG	2.85	96.6					
35 EK-DART (P-CAD 35 x CD3-2) (bispecific antibody) chain 1: QSVLTQPPSVSAAPGQKVTISCSGSSSNIGNNYVSWYQQLPGTAPKLLIYDNNKRPSGIPDRFSGSKSGTSATLGITGLQTGDEADYYCGTWDSSLSAVVFGGGTKLTVLGGGSGGGGEVQLVESGGGLVQPGGSLRLSCAASGFTFNTYAMNWVRQAPGKGLEWVARIRSKYNNYATYYADSVKDRFTISRDDSKNSLYLQMNSLKTEDTAVYYCVRHGNFGNSYVSWFAYWGQGTLVTVSSGGCGGGKVAALKEKVAALKEKVAALKEKVAALKE chain 2: QAVVTQEPSLTVSPGGTVTLTCRSSTGAVTTSNYANWVQQKPGQAPRGLIGGTNKRAPWTPARFSGSLLGGKAALTITGAQAEDEADYYCALWYSNLWVFGGGTKLTVLGGGGSGGGGEVQLVQSGAEVKKPGASVKVSCKASGYTFTSYGISWVRQAPGQGLEWMGWISAYNGNTNYAQKLQGRVTMTTDTSTSTAYMELRSLRSDDTAVYYCATIDTASAFDIWGQGTMVTVSSGGCGGGEVAALEKEVAALEKEVAALEKEVAALEK			0.0398	0.501	0.0532	0.102	0.205
LP-DART #6 (bispecific antibody, also called P-cadherin LP-DART construct #6 (P-CAD 35, CD3-2)) chain 1: QAVVTQEPSLTVSPGGTVTLTCRSSTGAVTTSNYANWVQQKPGQAPRGLIGGTNKRAPWTPARFSGSLLGGKAALTITGAQAEDEADYYCALWYSNLWVFGGGTKLTVLGGGGSGGGGEVQLVQSGAEVKKPGASVKVSCKASGYTFTSYGISWVRQAPGQGLEWMGWISAYNGNTNYAQKLQGRVTMTTDTSTSTAYMELRSLRSDDTAVYYCATIDTASAFDIWGQGTMVTVSSGGTGGCPPCPAPEAAGAPSVFLFPPKPKDTLMISRTPEVTCVVVDVSHEDPEVKFNWYVDGVEVHNAKTKPREEQYNSTYRVVSVLTVLHQDWLNGKEYKCKVSNKALPAPIEKTISKAKGQPREPQVYTLPPCREEMTKNQVSLSCAVKGFYPSDIAVEWESNGQPENNYKTTPPVLDSDGSFFLVSKLTVDKSRWQQGNVFSCSVMHEALHNHYTQKSLSLSPG chain 2: QSVLTQPPSVSAAPGQKVTISCSGSSSNIGNNYVSWYQQLPGTAPKLLIYDNNKRPSGIPDRFSGSKSGTSATLGITGLQTGDEADYYCGTWDSSLSAVVFGGGTKLTVLGGGSGGGGEVQLVESGGGLVQPGGSLRLSCAASGFTFNTYAMNWVRQAPGKGLEWVARIRSKYNNYATYYADSVKDRFTISRDDSKNSLYLQMNSLKTEDTAVYYCVRHGNFGNSYVSWFAYWGQGTLVTVSSGGTGGCPPCPAPEAAGAPSVFLFPPKPKDTLMISRTPEVTCVVVDVSHEDPEVKFNWYVDGVEVHNAKTKPREEQYNSTYRVVSVLTVLHQDWLNGKEYKCKVSNKALPAPIEKTISKAKGQPREPQVCTLPPSREEMTKNQVSLWCLVKGFYPSDIAVEWESNGQPENNYKTTPPVLDSDGSFFLYSKLTVDKSRWQQGNVFSCSVMHEALHNHYTQKSLSLSPG	1.29	86.6					
LP-DART #5 (bispecific antibody, also called P-cadherin LP-DART construct #5 (P-CAD 35, CD3-2)) chain 1: QAVVTQEPSLTVSPGGTVTLTCRSSTGAVTTSNYANWVQQKPGQAPRGLIGGTNKRAPWTPARFSGSLLGGKAALTITGAQAEDEADYYCALWYSNLWVFGGGTKLTVLGGGGSGGGGEVQLVQSGAEVKKPGASVKVSCKASGYTFTSYGISWVRQAPGQGLEWMGWISAYNGNTNYAQKLQGRVTMTTDTSTSTAYMELRSLRSDDTAVYYCATIDTASAFDIWGQGTMVTVSSGCPPCPAPEAAGAPSVFLFPPKPKDTLMISRTPEVTCVVVDVSHEDPEVKFNWYVDGVEVHNAKTKPREEQYNSTYRVVSVLTVLHQDWLNGKEYKCKVSNKALPAPIEKTISKAKGQPREPQVYTLPPCREEMTKNQVSLSCAVKGFYPSDIAVEWESNGQPENNYKTTPPVLDSDGSFFLVSKLTVDKSRWQQGNVFSCSVMHEALHNHYTQKSLSLSPG chain 2: QSVLTQPPSVSAAPGQKVTISCSGSSSNIGNNYVSWYQQLPGTAPKLLIYDNNKRPSGIPDRFSGSKSGTSATLGITGLQTGDEADYYCGTWDSSLSAVVFGGGTKLTVLGGGSGGGGEVQLVESGGGLVQPGGSLRLSCAASGFTFNTYAMNWVRQAPGKGLEWVARIRSKYNNYATYYADSVKDRFTISRDDSKNSLYLQMNSLKTEDTAVYYCVRHGNFGNSYVSWFAYWGQGTLVTVSSGCPPCPAPEAAGAPSVFLFPPKPKDTLMISRTPEVTCVVVDVSHEDPEVKFNWYVDGVEVHNAKTKPREEQYNSTYRVVSVLTVLHQDWLNGKEYKCKVSNKALPAPIEKTISKAKGQPREPQVCTLPPSREEMTKNQVSLWCLVKGFYPSDIAVEWESNGQPENNYKTTPPVLDSDGSFFLYSKLTVDKSRWQQGNVFSCSVMHEALHNHYTQKSLSLSPG	0.74	62.1					
LP-DART #4 (bispecific antibody, also called P-cadherin LP-DART construct #4 (P-CAD 35, CD3-2)) chain 1: QAVVTQEPSLTVSPGGTVTLTCRSSTGAVTTSNYANWVQQKPGQAPRGLIGGTNKRAPWTPARFSGSLLGGKAALTITGAQAEDEADYYCALWYSNLWVFGGGTKLTVLGGGGSGGGGEVQLVQSGAEVKKPGASVKVSCKASGYTFTSYGISWVRQAPGQGLEWMGWISAYNGNTNYAQKLQGRVTMTTDTSTSTAYMELRSLRSDDTAVYYCATIDTASAFDIWGQGTMVTVSSGGTGGGEPKSSDKTHTCPPCPAPEAAGAPSVFLFPPKPKDTLMISRTPEVTCVVVDVSHEDPEVKFNWYVDGVEVHNAKTKPREEQYNSTYRVVSVLTVLHQDWLNGKEYKCKVSNKALPAPIEKTISKAKGQPREPQVCTLPPSREEMTKNQVSLWCLVKGFYPSDIAVEWESNGQPENNYKTTPPVLDSDGSFFLYSKLTVDKSRWQQGNVFSCSVMHEALHNHYTQKSLSLSPG chain 2: QSVLTQPPSVSAAPGQKVTISCSGSSSNIGNNYVSWYQQLPGTAPKLLIYDNNKRPSGIPDRFSGSKSGTSATLGITGLQTGDEADYYCGTWDSSLSAVVFGGGTKLTVLGGGSGGGGEVQLVESGGGLVQPGGSLRLSCAASGFTFNTYAMNWVRQAPGKGLEWVARIRSKYNNYATYYADSVKDRFTISRDDSKNSLYLQMNSLKTEDTAVYYCVRHGNFGNSYVSWFAYWGQGTLVTVSSGGTGGGEPKSSDKTHTCPPCPAPEAAGAPSVFLFPPKPKDTLMISRTPEVTCVVVDVSHEDPEVKFNWYVDGVEVHNAKTKPREEQYNSTYRVVSVLTVLHQDWLNGKEYKCKVSNKALPAPIEKTISKAKGQPREPQVYTLPPCREEMTKNQVSLSCAVKGFYPSDIAVEWESNGQPENNYKTTPPVLDSDGSFFLVSKLTVDKSRWQQGNVFSCSVMHEALHNHYTQKSLSLSPG	2.45	128					
LP-DART #8 (bispecific antibody, also called P-cadherin LP-DART construct #8 (P-CAD 35, CD3-2)) chain 1: QAVVTQEPSLTVSPGGTVTLTCRSSTGAVTTSNYANWVQQKPGQAPRGLIGGTNKRAPWTPARFSGSLLGGKAALTITGAQAEDEADYYCALWYSNLWVFGGGTKLTVLGGGGSGGGGEVQLVQSGAEVKKPGASVKVSCKASGYTFTSYGISWVRQAPGQGLEWMGWISAYNGNTNYAQKLQGRVTMTTDTSTSTAYMELRSLRSDDTAVYYCATIDTASAFDIWGQGTMVTVSSGGTGGGEPKSSDKTHTCPPCPAPEAAGAPSVFLFPPKPKDTLMISRTPEVTCVVVDVSHEDPEVKFNWYVDGVEVHNAKTKPREEQYNSTYRVVSVLTVLHQDWLNGKEYKCKVSNKALPAPIEKTISKAKGQPREPQVYTLPPCREEMTKNQVSLSCAVKGFYPSDIAVEWESNGQPENNYKTTPPVLDSDGSFFLVSKLTVDKSRWQQGNVFSCSVMHEALHNHYTQKSLSLSPG chain 2: QSVLTQPPSVSAAPGQKVTISCSGSSSNIGNNYVSWYQQLPGTAPKLLIYDNNKRPSGIPDRFSGSKSGTSATLGITGLQTGDEADYYCGTWDSSLSAVVFGGGTKLTVLGGGSGGGGEVQLVESGGGLVQPGGSLRLSCAASGFTFNTYAMNWVRQAPGKGLEWVARIRSKYNNYATYYADSVKDRFTISRDDSKNSLYLQMNSLKTEDTAVYYCVRHGNFGNSYVSWFAYWGQGTLVTVSSGGTGGGEPKSSDKTHTCPPCPAPEAAGAPSVFLFPPKPKDTLMISRTPEVTCVVVDVSHEDPEVKFNWYVDGVEVHNAKTKPREEQYNSTYRVVSVLTVLHQDWLNGKEYKCKVSNKALPAPIEKTISKAKGQPREPQVCTLPPSREEMTKNQVSLWCLVKGFYPSDIAVEWESNGQPENNYKTTPPVLDSDGSFFLYSKLTVDKSRWQQGNVFSCSVMHEALHNHYTQKSLSLSPG	2.27	104					
